Results published in patent US10358467B2, “Therapeutic targets for cancer progression” (The Regents of the University of California, priority 2015, dated 2019).

How the values were obtained:
Type in all cases: cell-based
[1] = test system: Gi heterotrimer (Gαi1-YFP, CFP-Gβ1, Gγ2); test: FRET between Gαi1-YFP and CFP-Gβ1 (Gi activation) in living HeLa cells
Protocol: (§1) Förster Resonance Energy Transfer (FRET) experiments were performed using the classical ECFP- and EYFP-tagged proteins as donor and acceptor FRET-probe pairs, respectively. Previously validated and published FZD7-CFP construct was a generous gift from Carl-Philip Heisenberg (Witzel et al, 2006). Previously validated Gαi3-YFP and Gαi1-YFP (internally tagged Gαi subunits) and CFP-Gβ1 were generous gifts from Moritz Bunemann (Bunemann et al, 2003; Gibson & Gilman, 2006). Interaction of FZD7-CFP and Gαi3-YFP proteins was studied in HEK293T cells using a Leica inverted laser scanning confocal microscope. […] Loss of FRET upon Gi activation and heterotrimer dissociation was measured between Gαi1-YFP and CFP-Gβ1 proteins co-expressed in living HeLa cells using Olympus FV1000 inverted confocal laser scanning microscope equipped with a 60× 1.49 N.A oil immersed objective designed to minimize chromatic aberration and enhance resolution for 405-605 nm imaging as described previously (Midde et al, 2015). […] FRET efficiency was calculated on a pixel by pixel basis from ratiometric images obtained in individual channels (donor, acceptor and FRET) through a RiFRET plugin in Image J software (Roszik et al, 2009). […]

[2] = test system: cAMP levels in HeLa cells; test: Measurement of cAMP by radioimmunoassay in HeLa cells
Protocol: HeLa cells were transfected with DAPLE-WT or DAPLE-FA, serum starved (0.2% FBS, 16 h) and incubated with isobutylmethylxanthine (IBMX, 200 μM, 20 min) followed by Wnt5a stimulation (100 ng/ml, 20 min) and Forskolin (10 uM, 10 min). To stop the reaction, cell medium was replaced with 150 μl of ice-cold TCA 7.5% (w/v). cAMP content in TCA extracts was determined by radioimmunoassay (MA) and normalized. To the amount of protein [(determined using a dyebinding protein assay (Bio-Rad)] per sample as previously described (Ostrom et al, 2001).

FZD7R-Gαi3 complexes = test: FRET between FZD7R-CFP and Gαi3-YFP in HEK293 cells; conditions: plasma membrane, within 5 min; starved cells 0.04±0.01
Protocol: as §1

B1: Wnt5a: recombinant Wnt5a purified from CHO conditioned media (protein, UniProt P41221 62-380, looked up)
Protein Wnt-5a: IIGAQPLCSQLAGLSQGQKKLCHLYQDHMQYIGEGAKTGIKECQYQFRHRRWNCSTVDNTSVFGRVMQIGSRETAFTYAVSAAGVVNAMSRACREGELSTCGCSRAARPKDLPRDWLWGGCGDNIDYGYRFAKEFVDARERERIHAKGSYESARILMNLHNNEAGRRTVYNLADVACKCHGVSGSCSLKTCWLQLADFRKVGDALKEKYDSAAAMRLNSRGKLVQVNSRFNSPTTQDLVYIDPSPDYCVRNESTGSLGTQGRLCNKTSEGMDGCELMCCGRGYDQFKTVQTERCHCKFHWCCYVKCKKCTEIVDQFVCK
- drop in FRET after Wnt5a stimulation ([1]; DAPLE-depleted HeLa cells): No significant drop in FRET
- FRET efficiency after Wnt5a stimulation ([1]; control HeLa cells, plasma membrane, within 5 min, 0.36±0.08 before stimulation): 0.17±0.06
- suppression of cAMP levels ([2]; HeLa cells expressing DAPLE-FA): no such suppression
- suppression of cAMP levels ([2]; HeLa cells expressing DAPLE-WT, Wnt5a 100 ng/ml 20 min): ~50%
- FRET efficiency after ligand stimulation (FZD7R-Gαi3 complexes): 0.25±0.06
